From patent US10919953 (dated 2021)
Read-outs that look alike come from different tables or passages of the source.

What was measured:
Experiment in all cases: SPR
FcgRIa [1] = target: T1, FcgRIa (human, UniProt P12314)
T1 chain: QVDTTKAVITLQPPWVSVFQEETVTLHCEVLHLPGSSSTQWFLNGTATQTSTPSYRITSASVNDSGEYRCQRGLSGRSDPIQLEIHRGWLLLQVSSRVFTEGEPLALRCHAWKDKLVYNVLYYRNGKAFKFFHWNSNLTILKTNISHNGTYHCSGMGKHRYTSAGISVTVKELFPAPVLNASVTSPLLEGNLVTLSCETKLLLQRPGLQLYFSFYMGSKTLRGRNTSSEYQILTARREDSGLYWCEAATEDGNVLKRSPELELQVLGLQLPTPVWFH

FcgRIIb [2] = target: T2, FcgRIIb (human, UniProt P31994)
T2 chain: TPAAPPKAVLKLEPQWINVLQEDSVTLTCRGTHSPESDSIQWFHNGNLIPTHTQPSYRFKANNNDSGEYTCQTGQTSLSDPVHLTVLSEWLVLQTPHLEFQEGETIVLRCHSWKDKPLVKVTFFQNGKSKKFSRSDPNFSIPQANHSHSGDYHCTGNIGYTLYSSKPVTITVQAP

FcgRIIaR [3] = target: T3, FcgRIIaR (human, UniProt P12318)
T3 chain: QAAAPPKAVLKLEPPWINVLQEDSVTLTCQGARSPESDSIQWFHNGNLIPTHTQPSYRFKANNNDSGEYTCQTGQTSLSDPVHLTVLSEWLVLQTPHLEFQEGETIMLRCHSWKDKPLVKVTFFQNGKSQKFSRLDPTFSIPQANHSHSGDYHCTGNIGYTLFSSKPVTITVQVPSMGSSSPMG

FcgRIIb [4] = target: T2, FcgRIIb
FcgRIa [5] = target: T1, FcgRIa
FcgRIIaR [6] = target: T3, FcgRIIaR

| Binder | Kd (FcgRIa [1]) | Kd (FcgRIIb [2]) | Kd (FcgRIIaR [3]) | Kd (FcgRIIb [4]) | Kd (FcgRIa [5]) | Kd (FcgRIIaR [6]) |
| --- | --- | --- | --- | --- | --- | --- |
| IL6R-BP257/IL6R-L (antibody) chain 1: QVQLQESGPGLVKPSETLSLTCAVSGHSISHDHAWSWVRQPPGEGLEWIGFISYSGITNYNPSLQGRVTISRDNSKNTLYLQMNSLRAEDTAVYYCARSLARTTAMDYWGEGTLVTVSSASTKGPEVFPLAPSSKSTSGGTAALGCLVKDYFPEPVTVSWNSGALTSGVHTFPAVLQSSGLYSLSSVVTVPSSSLGTQTYICNVNHKPSNTKVDKKVEPKSCDKTHTCPPCPAPDLLGDDSVFLFPPKPKDTLMISRTPEVTCVVVDVSDEDGEVKFNWYVDGVEVHNAKTKPREEQYNSTYRVVSVLTVLHQDWLNGKEYKCKVSNKALPRPIEKTISKAKGQPREPQVYTLPPSRDELTKNQVSLTCLVKGFYPSDIAVEWESNGQPENNYKTTPPVLDSDGSFFLYSKLTVDKSRWQQGNVFSCSVMHEALHNHYTQESLSLSP chain 2: not shown | 0.31 nM | 430 nM | 1300 nM |  |  |  |
| IL6R-AP029/IL6R-BP408/IL6R-L (antibody) chain 1: QVQLQESGPGLVKPSETLSLTCAVSGHSISHDHAWSWVRQPPGEGLEWIGFISYSGITNYNPSLQGRVTISRDNSKNTLYLQMNSLRAEDTAVYYCARSLARTTAMDYWGEGTLVTVSSASTKGPSVFPLAPSSKSTSGGTAALGCLVKDYFPEPVTVSWNSGALTSGVHTFPAVLQSSGLYSLSSVVTVPSSSLGTQTYICNVNHKPSNTKVDKKVEPKSCDKTHTCPPCPAPDLLGDDSVFLFPPKPKDTLMISRTPEVTCVVVDVSEEDGEVKFNWYVDGVEVHNAKTKPREEQDNSTYRVVSVLTVLHQDWLNGKEYKCKVSNKALPRPIEKTISKAKGQPREPQVYTLPPSRKELTKNQVSLTCLVKGFYPSDIAVEWESNGQPENNYKTTPPVLDSDGSFFLYSKLTVDKSRWQQGNVFSCSVMHEALHNRYTQKSLSLSP chain 2: QVQLQESGPGLVKPSETLSLTCAVSGHSISHDHAWSWVRQPPGEGLEWIGFISYSGITNYNPSLQGRVTISRDNSKNTLYLQMNSLRAEDTAVYYCARSLARTTAMDYWGEGTLVTVSSASTKGPSVFPLAPSSKSTSGGTAALGCLVKDYFPEPVTVSWNSGALTSGVHTFPAVLQSSGLYSLSSVVTVPSSSLGTQTYICNVNHKPSNTKVDKKVEPKSCDKTHTCPPCPAPDLQGDDSVFLFPPKPKDTLMISRTPEVTCVVVDVSEEDGEVKFNWYVDGVEVHNAKTKPREEQDNSTYRVVSVLTVLHQDWLNGKEYKCKVSNKALPRPIEKTISKAKGQPREPQVYTLPPSRDELTKNQVSLTCLVKGFYPSDIAVEWESNGQPENNYKTTPPVLDSDGSFFLYSKLTVDKSRWQQGNVFSCSVMHEALHNHYTQESLSLSP chain 3: not shown |  |  |  | 26 nM | 20 nM | 860 nM |
| IL6R-BP259/IL6R-L (antibody) chain 1: QVQLQESGPGLVKPSETLSLTCAVSGHSISHDHAWSWVRQPPGEGLEWIGFISYSGITNYNPSLQGRVTISRDNSKNTLYLQMNSLRAEDTAVYYCARSLARTTAMDYWGEGTLVTVSSASTKGPDVFPLAPSSKSTSGGTAALGCLVKDYFPEPVTVSWNSGALTSGVHTFPAVLQSSGLYSLSSVVTVPSSSLGTQTYICNVNHKPSNTKVDKKVEPKSCDKTHTCPPCPAPDLLGDDSVFLFPPKPKDTLMISRTPEVTCVVVDVSDEDGEVKFNWYVDGVEVHNAKTKPREEQDNSTYRVVSVLTVLHQDWLNGKEYKCKVSNKALPRPIEKTISKAKGQPREPQVYTLPPSRDELTKNQVSLTCLVKGFYPSDIAVEWESNGQPENNYKTTPPVLDSDGSFFLYSKLTVDKSRWQQGNVFSCSVMHEALHNHYTQESLSLSP chain 2: not shown | 3.1 nM | 110 nM | 860 nM |  |  |  |
| IL6R-BP419/IL6R-L (antibody) chain 1: QVQLQESGPGLVKPSETLSLTCAVSGHSISHDHAWSWVRQPPGEGLEWIGFISYSGITNYNPSLQGRVTISRDNSKNTLYLQMNSLRAEDTAVYYCARSLARTTAMDYWGEGTLVTVSSASTKGPSVFPLAPSSKSTSGGTAALGCLVKDYFPEPVTVSWNSGALTSGVHTFPAVLQSSGLYSLSSVVTVPSSSLGTQTYICNVNHKPSNTKVDKKVEPKSCDKTHTCPPCPAPDLFGDDSVFLFPPKPKDTLMISRTPEVTCVVVDVSEEDGEVKFNWYVDGVEVHNAKTKPREEQDNSTYRVVSVLTVLHQDWLNGKEYKCKVSNKALPRPIEKTISKAKGQPREPQVYTLPPSRDELTKNQVSLTCLVKGFYPSDIAVEWESNGQPENNYKTTPPVLDSDGSFFLYSKLTVDKSRWQQGNVFSCSVMHEALHNHYTQESLSLSP chain 2: not shown |  |  |  | 26 nM | 40 nM | 830 nM |
| IL6R-BP256/IL6R-L (antibody) chain 1: QVQLQESGPGLVKPSETLSLTCAVSGHSISHDHAWSWVRQPPGEGLEWIGFISYSGITNYNPSLQGRVTISRDNSKNTLYLQMNSLRAEDTAVYYCARSLARTTAMDYWGEGTLVTVSSASTKGPDVFPLAPSSKSTSGGTAALGCLVKDYFPEPVTVSWNSGALTSGVHTFPAVLQSSGLYSLSSVVTVPSSSLGTQTYICNVNHKPSNTKVDKKVEPKSCDKTHTCPPCPAPDLLGDDSVFLFPPKPKDTLMISRTPEVTCVVVDVSDEDGEVKFNWYVDGVEVHNAKTKPREEQYNSTYRVVSVLTVLHQDWLNGKEYKCKVSNKALPRPIEKTISKAKGQPREPQVYTLPPSRDELTKNQVSLTCLVKGFYPSDIAVEWESNGQPENNYKTTPPVLDSDGSFFLYSKLTVDKSRWQQGNVFSCSVMHEALHNHYTQESLSLSP chain 2: not shown | 2 nM | 87 nM | 730 nM |  |  |  |
| IL6R-BP408/IL6R-L (antibody) chain 1: QVQLQESGPGLVKPSETLSLTCAVSGHSISHDHAWSWVRQPPGEGLEWIGFISYSGITNYNPSLQGRVTISRDNSKNTLYLQMNSLRAEDTAVYYCARSLARTTAMDYWGEGTLVTVSSASTKGPSVFPLAPSSKSTSGGTAALGCLVKDYFPEPVTVSWNSGALTSGVHTFPAVLQSSGLYSLSSVVTVPSSSLGTQTYICNVNHKPSNTKVDKKVEPKSCDKTHTCPPCPAPDLQGDDSVFLFPPKPKDTLMISRTPEVTCVVVDVSEEDGEVKFNWYVDGVEVHNAKTKPREEQDNSTYRVVSVLTVLHQDWLNGKEYKCKVSNKALPRPIEKTISKAKGQPREPQVYTLPPSRDELTKNQVSLTCLVKGFYPSDIAVEWESNGQPENNYKTTPPVLDSDGSFFLYSKLTVDKSRWQQGNVFSCSVMHEALHNHYTQESLSLSP chain 2: not shown |  |  |  | 720 nM | 140 nM | 34000 nM |
| IL6R-BP260/IL6R-L (antibody) chain 1: QVQLQESGPGLVKPSETLSLTCAVSGHSISHDHAWSWVRQPPGEGLEWIGFISYSGITNYNPSLQGRVTISRDNSKNTLYLQMNSLRAEDTAVYYCARSLARTTAMDYWGEGTLVTVSSASTKGPEVFPLAPSSKSTSGGTAALGCLVKDYFPEPVTVSWNSGALTSGVHTFPAVLQSSGLYSLSSVVTVPSSSLGTQTYICNVNHKPSNTKVDKKVEPKSCDKTHTCPPCPAPDLLGDDSVFLFPPKPKDTLMISRTPEVTCVVVDVSDEDGEVKFNWYVDGVEVHNAKTKPREEQDNSTYRVVSVLTVLHQDWLNGKEYKCKVSNKALPRPIEKTISKAKGQPREPQVYTLPPSRDELTKNQVSLTCLVKGFYPSDIAVEWESNGQPENNYKTTPPVLDSDGSFFLYSKLTVDKSRWQQGNVFSCSVMHEALHNHYTQESLSLSP chain 2: not shown | 0.31 nM | 380 nM |  |  |  |  |
| IL6R-BP264/IL6R-L (antibody) chain 1: QVQLQESGPGLVKPSETLSLTCAVSGHSISHDHAWSWVRQPPGEGLEWIGFISYSGITNYNPSLQGRVTISRDNSKNTLYLQMNSLRAEDTAVYYCARSLARTTAMDYWGEGTLVTVSSASTKGPSVFPLAPSSKSTSGGTAALGCLVKDYFPEPVTVSWNSGALTSGVHTFPAVLQSSGLYSLSSVVTVPSSSLGTQTYICNVNHKPSNTKVDKKVEPKSCDKTHTCPPCPAPDLLGDDSVFLFPPKPKDTLMISRTPEVTCVVVDVSEEDGEVKFNWYVDGVEVHNAKTKPREEQDNSTYRVVSVLTVLHQDWLNGKEYKCKVSNKALPRPIEKTISKAKGQPREPQVYTLPPSRDELTKNQVSLTCLVKGFYPSDIAVEWESNGQPENNYKTTPPVLDSDGSFFLYSKLTVDKSRWQQGNVFSCSVMHEALHNHYTQESLSLSP chain 2: not shown |  |  |  |  | 7.4 nM |  |
| IL6R-BP208/IL6R-L (antibody) chain 1: QVQLQESGPGLVKPSETLSLTCAVSGHSISHDHAWSWVRQPPGEGLEWIGFISYSGITNYNPSLQGRVTISRDNSKNTLYLQMNSLRAEDTAVYYCARSLARTTAMDYWGEGTLVTVSSASTKGPSVFPLAPSSKSTSGGTAALGCLVKDYFPEPVTVSWNSGALTSGVHTFPAVLQSSGLYSLSSVVTVPSSSLGTQTYICNVNHKPSNTKVDKKVEPKSCDKTHTCPPCPAPDLLGDDSVFLFPPKPKDTLMISRTPEVTCVVVDVSDEDGEVKFNWYVDGVEVHNAKTKPREEQYNSTYRVVSVLTVLHQDWLNGKEYKCKVSNKALPRPIEKTISKAKGQPREPQVYTLPPSRDELTKNQVSLTCLVKGFYPSDIAVEWESNGQPENNYKTTPPVLDSDGSFFLYSKLTVDKSRWQQGNVFSCSVMHEALHNHYTQESLSLSP chain 2: not shown |  |  | 850 nM |  |  |  |
